In publication PMC3275625:

Biological target: SITS-labeled human αB-crystallin wild type (human) (UniProt P02511)
Experiment: FRET or BRET; in vitro subunit exchange: equal amounts (0.4 mg/ml) of SITS-labeled αB-wt (donor) and LYI-labeled αA-wt or mutant (acceptor) mixed at 37°C in 20 mM MOPS, 100 mM NaCl, pH 7.9; excitation 336 nm, rate constant k from the increase of acceptor emission at 515 nm, fit Ft/F0 = A1+A2e^-kt

Chain of LYI-labeled human αA-crystallin wild type (P02489 whole entry): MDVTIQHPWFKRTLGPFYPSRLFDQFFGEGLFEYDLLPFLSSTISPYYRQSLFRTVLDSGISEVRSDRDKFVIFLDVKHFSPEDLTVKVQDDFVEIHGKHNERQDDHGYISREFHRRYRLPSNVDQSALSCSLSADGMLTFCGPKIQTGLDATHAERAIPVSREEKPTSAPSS
Chain of SITS-labeled human αB-crystallin wild type (human) (P02511 whole entry): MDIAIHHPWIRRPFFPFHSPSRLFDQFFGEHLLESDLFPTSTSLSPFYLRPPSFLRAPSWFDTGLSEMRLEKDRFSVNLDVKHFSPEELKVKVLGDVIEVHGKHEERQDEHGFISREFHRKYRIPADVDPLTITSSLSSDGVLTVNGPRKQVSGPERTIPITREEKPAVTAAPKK

Work on “LYI-labeled human αA-crystallin wild type (from UniProt P02489 1-173) (natural protein)” yielded a k (rate constant of subunit exchange) of 0.000657 S^-1.
